Molecular target: GST-tagged proline-rich domain (PRD) of Dyn2 (human)
Test: pull-down

GST-tagged proline-rich domain (PRD) of Dyn2 (human), sequence (P50570 whole entry, the tested form may be a part): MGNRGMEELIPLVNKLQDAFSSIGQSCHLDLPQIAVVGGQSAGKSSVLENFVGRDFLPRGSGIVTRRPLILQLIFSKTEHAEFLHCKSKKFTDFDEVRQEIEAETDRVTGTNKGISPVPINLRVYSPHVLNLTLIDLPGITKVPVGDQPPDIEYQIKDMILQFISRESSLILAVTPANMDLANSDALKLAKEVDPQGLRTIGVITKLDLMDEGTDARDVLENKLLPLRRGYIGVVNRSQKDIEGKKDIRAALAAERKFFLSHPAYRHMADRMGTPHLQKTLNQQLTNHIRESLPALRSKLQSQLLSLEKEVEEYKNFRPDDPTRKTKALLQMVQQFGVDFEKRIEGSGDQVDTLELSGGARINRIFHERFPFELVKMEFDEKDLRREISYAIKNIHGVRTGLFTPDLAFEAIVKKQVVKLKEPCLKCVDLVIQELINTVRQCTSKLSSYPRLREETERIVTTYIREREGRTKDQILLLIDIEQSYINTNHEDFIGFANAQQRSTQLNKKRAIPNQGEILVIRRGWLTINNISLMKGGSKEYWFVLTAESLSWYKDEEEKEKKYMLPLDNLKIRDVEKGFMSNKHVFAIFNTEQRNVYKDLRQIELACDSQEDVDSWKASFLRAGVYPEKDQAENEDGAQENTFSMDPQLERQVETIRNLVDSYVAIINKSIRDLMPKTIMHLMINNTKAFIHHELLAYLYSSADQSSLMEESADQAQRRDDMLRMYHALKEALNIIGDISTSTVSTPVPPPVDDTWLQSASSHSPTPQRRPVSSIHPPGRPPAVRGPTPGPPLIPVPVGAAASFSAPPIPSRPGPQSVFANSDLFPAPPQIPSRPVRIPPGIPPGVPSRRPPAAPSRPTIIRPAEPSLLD

Substance	Kd [nM]
His-tagged human Bin1 isoform 8, wild type (natural protein)	180
His-tagged human Bin1 isoform 8, CNM-associated mutant K436X (domain or fragment)	267

Reference: paper doi:10.1101/2021.10.11.463889
